Target: T1, interaction between TIM-3 and Galectin-9 (Homo sapiens, UniProt Q8TDQ0)
T1 construct: purchased R&D Systems
Experiment: Plate-based (MesoScale) competition assay of the TIM-3/Galectin-9 interaction
Assay type: binding
Conditions: TIM-3 fusion protein coated at 2 μg/ml; SULFOTag Galectin-9 100 nM; FIG. 1
Procedure: TIM-3 fusion protein (R&D Systems) was coated on a standard MesoScale 96 well plate (Meso Scale Discovery) at 2 μg/ml in PBS (Phosphate Buffered Saline) and incubated for six hours at room temperature. The plate was washed three times with PBST (PBS buffer containing 0.05% Tween-20) and blocked with PBS containing 5% Probumin (Millipore) overnight at 4° C. After incubation, the plate was washed three times with PBST and unlabeled antibody (F38-2E2 (BioLegend); MBG453; MBG453 F(ab′)2; MBG453 F(ab); or control recombinant human Galectin-9 protein) diluted in Assay Diluent (2% Probumin, 0.1% Tween-20, 0.1% Triton X-100 (Sigma) with 10% StabilGuard (SurModics)), was added in serial dilutions to the plate and incubated for one hour on an orbital shaker at room temperature. The plate was then washed three times with PBST, and Galectin-9 labeled with MSD SULFOTag (Meso Scale Discovery) as per manufacturer's instructions, diluted in Assay Diluent to 100 nM, was added to the plate for one hour at room temperature on an orbital shaker. The plate was again washed three times with PBST, and Read Buffer T (1×) was added to the plate. The plate was read on MA600 Imager, and competition was assessed as a measure of the ability of the antibody to block Ga19-SULFOTag signal to TIM-3 receptor.

B1: control Galectin-9 protein: control recombinant human Galectin-9 protein, unlabeled (protein)
chain: AFSGSQAPYLSPAVPFSGTIQGGLQDGLQITVNGTVLSSSGTRFAVNFQTGFSGNDIAFHFNPRFEDGGYVVCNTRQNGSWGPEERKTHMPFQKGMPFDLCFLVQSSDFKVMVNGILFVQYFHRVPFHRVDTISVNGSVQLSYISFQPPGVWPANPAPITQTVIHTVQSAPGQMFSTPAIPPMMYPHPAYPMPFITTILGGLYPSKSILLSGTVLPSAQRFHINLCSGNHIAFHLNPRFDENAVVRNTQIDNSWGSEERSLPRKMPFVRGQSFSVWILCEAHCLKVAVDGQHLFEYYHRLRNLPTINRLEVGGDIQLTHVQT
- ability of the antibody to block Ga19-SULFOTag signal to TIM-3 receptor (interaction between TIM-3 and Galectin-9): did not

— patent US20240301054A1, “TIM-3 INHIBITORS AND USES THEREOF” (Novartis AG, priority 2019, published 2024)
